Assay results taken from the supplement of paper PMC9112550, “Optimization of the antimicrobial peptide Bac7 by deep mutational scanning” (BMC Biology, 2022).

test system: Escherichia coli TOP10; assay: shrunken log2 fold change of peptide-encoding DNA abundance (4.5 h post-induction vs induction); higher = less antimicrobial activity (less host growth inhibition); details: time post-induction: 4.5 h; library: site-saturation at positions 5, 18, 19, 20
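Also: peptides expressed intracellularly from a pBAD plasmid library in pooled LB shake-flask culture, induced with 0.3% L-arabinose, DNA abundance read by NGS, three biological replicates, DESeq2 with apeglm shrinkage.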

Row | Sequence | shrunken log2 fold change
1 | RRIRHRPPRLPRPRPRPDCAPRP | 0.196
2 | RRIRHRPPRLPRPRPRPDDCPRP | -0.00674
3 | RRIRHRPPRLPRPRPRPDDMPRP | -0.11
4 | RRIRHRPPRLPRPRPRPDDTPRP | -0.00674
5 | RRIRHRPPRLPRPRPRPDFKPRP | -0.127
6 | RRIRHRPPRLPRPRPRPDIVPRP | -0.38
7 | RRIRHRPPRLPRPRPRPDKVPRP | 0.1
8 | RRIRHRPPRLPRPRPRPDLCPRP | 0.00487
9 | RRIRHRPPRLPRPRPRPDLPPRP | 0.107
10 | RRIRHRPPRLPRPRPRPDMHPRP | -0.329
11 | RRIRHRPPRLPRPRPRPDMIPRP | -0.0018
12 | RRIRHRPPRLPRPRPRPDQFPRP | -0.441
13 | RRIRHRPPRLPRPRPRPDTHPRP | -1.19
14 | RRIRHRPPRLPRPRPRPEAFPRP | -0.0165
15 | RRIRHRPPRLPRPRPRPEANPRP | 0.00386
16 | RRIRHRPPRLPRPRPRPEARPRP | 0.192
17 | RRIRHRPPRLPRPRPRPECIPRP | -0.00992
18 | RRIRHRPPRLPRPRPRPECNPRP | -0.0866
19 | RRIRHRPPRLPRPRPRPEDNPRP | -0.0032
20 | RRIRHRPPRLPRPRPRPEGRPRP | -0.114
21 | RRIRHRPPRLPRPRPRPEHCPRP | 0.0155
22 | RRIRHRPPRLPRPRPRPEHHPRP | -0.0643
23 | RRIRHRPPRLPRPRPRPEKLPRP | 0.0208
24 | RRIRHRPPRLPRPRPRPELCPRP | -0.135
25 | RRIRHRPPRLPRPRPRPELGPRP | -0.101

Row | Sequence | shrunken log2 fold change
26 | RRIRHRPPRLPRPRPRPELRPRP | 0.0303
27 | RRIRHRPPRLPRPRPRPEMDPRP | 0.015
28 | RRIRHRPPRLPRPRPRPEMFPRP | 0.223
29 | RRIRHRPPRLPRPRPRPENLPRP | -0.00992
30 | RRIRHRPPRLPRPRPRPEQGPRP | 0.0631
31 | RRIRHRPPRLPRPRPRPEQSPRP | -0.0805
32 | RRIRHRPPRLPRPRPRPERIPRP | -0.0507
33 | RRIRHRPPRLPRPRPRPESDPRP | -0.227
34 | RRIRHRPPRLPRPRPRPETMPRP | 0.054
35 | RRIRHRPPRLPRPRPRPETYPRP | -0.00431
36 | RRIRHRPPRLPRPRPRPEVAPRP | -0.00165
37 | RRIRHRPPRLPRPRPRPEVKPRP | 0.104
38 | RRIRHRPPRLPRPRPRPEWLPRP | 0.274
39 | RRIRHRPPRLPRPRPRPEYWPRP | -0.0523
40 | RRIRHRPPRLPRPRPRPFCEPRP | -0.394
41 | RRIRHRPPRLPRPRPRPFELPRP | -0.0176
42 | RRIRHRPPRLPRPRPRPFEMPRP | -0.505
43 | RRIRHRPPRLPRPRPRPFIEPRP | -0.276
44 | RRIRHRPPRLPRPRPRPFIQPRP | -0.577
45 | RRIRHRPPRLPRPRPRPFKMPRP | -0.274
46 | RRIRHRPPRLPRPRPRPFMDPRP | -0.436
47 | RRIRHRPPRLPRPRPRPFMIPRP | -0.341
48 | RRIRHRPPRLPRPRPRPFNLPRP | -0.189
49 | RRIRHRPPRLPRPRPRPFPYPRP | -0.0859
50 | RRIRHRPPRLPRPRPRPFVMPRP | -0.281

Row | Sequence | shrunken log2 fold change
51 | RRIRHRPPRLPRPRPRPFWIPRP | -0.364
52 | RRIRHRPPRLPRPRPRPFYLPRP | -0.915
53 | RRIRHRPPRLPRPRPRPGCGPRP | 0.417
54 | RRIRHRPPRLPRPRPRPGCWPRP | 0.434
55 | RRIRHRPPRLPRPRPRPGDFPRP | -0.147
56 | RRIRHRPPRLPRPRPRPGDQPRP | -0.0414
57 | RRIRHRPPRLPRPRPRPGDTPRP | -0.0174
58 | RRIRHRPPRLPRPRPRPGFGPRP | 0.384
59 | RRIRHRPPRLPRPRPRPGGHPRP | 0.125
60 | RRIRHRPPRLPRPRPRPGGIPRP | -0.092
61 | RRIRHRPPRLPRPRPRPGHWPRP | -0.0325
62 | RRIRHRPPRLPRPRPRPGIAPRP | -0.0902
63 | RRIRHRPPRLPRPRPRPGPCPRP | -0.254
64 | RRIRHRPPRLPRPRPRPGPPPRP | 0.228
65 | RRIRHRPPRLPRPRPRPGQPPRP | 0.0384
66 | RRIRHRPPRLPRPRPRPGRNPRP | -0.31
67 | RRIRHRPPRLPRPRPRPGRQPRP | -0.0906
68 | RRIRHRPPRLPRPRPRPGSTPRP | -0.681
69 | RRIRHRPPRLPRPRPRPGTKPRP | -0.0254
70 | RRIRHRPPRLPRPRPRPGTWPRP | -0.0162
71 | RRIRHRPPRLPRPRPRPGVPPRP | 0.191
72 | RRIRHRPPRLPRPRPRPGVRPRP | 0.175
73 | RRIRHRPPRLPRPRPRPHAGPRP | -0.245
74 | RRIRHRPPRLPRPRPRPHAVPRP | -0.0488
75 | RRIRHRPPRLPRPRPRPHCNPRP | -0.158
